The target of this series is T1, 3XHA-LEC2 (Arabidopsis LEAFY COTYLEDON 2, CDS in PB7HA 35S vector), Q1PFR7.
T1 chain: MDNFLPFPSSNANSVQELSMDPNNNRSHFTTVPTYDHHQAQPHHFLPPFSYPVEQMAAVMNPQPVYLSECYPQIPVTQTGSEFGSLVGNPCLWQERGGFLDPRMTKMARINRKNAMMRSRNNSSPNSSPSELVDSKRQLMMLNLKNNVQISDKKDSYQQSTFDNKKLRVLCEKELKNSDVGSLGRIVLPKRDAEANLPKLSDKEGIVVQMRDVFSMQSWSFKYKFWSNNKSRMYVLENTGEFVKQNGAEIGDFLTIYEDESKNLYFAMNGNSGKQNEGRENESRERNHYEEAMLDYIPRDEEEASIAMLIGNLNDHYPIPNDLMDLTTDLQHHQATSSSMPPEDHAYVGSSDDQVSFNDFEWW

B1: 3xFLAG-UPL3 (Arabidopsis UBIQUITIN PROTEIN LIGASE 3, CDS in PW1266 35S vector) (protein)
chain: METRSRKRAEATSAAPSSSSSSPPPPPSASGPTTRSKRARLSSSSSSSLAPTPPSSSTTTRSRSSRSAAAAAPMDTSTDSSGFRRGGRGNRGNNNDNSDKGKEKEHDVRIRERERERDRAREQLNMDAAAAAARSADEDDDNDSEDGNGGFMHPNMSSASSALQGLLRKLGAGLDDLLPSSGIGSASSSHLNGRMKKILSGLRAEGEEGKQVEALTQLCEMLSIGTEDSLSTFSVDSFVPVLVGLLNHESNPDIMLLAARALTHLCDVLPSSCAAVVHYGAVSCLVARLLTIEYMDLAEQSLQALKKISQEHPTACLRAGALMAVLSYLDFFSTGVQRVALSTAANMCKKLPSDASDYVMEAVPLLTNLLQYHDSKVLEYASICLTRIAEAFAPYPEKLDELCNHGLVTQAASLISTSNSGGGQASLSVSTYTGLIRLLSTCASGSPLGFRTLLLLGISSILKDILLGSGVSANASVSPALSRPADQIYEIVNLANELLPPLPEGVISLPTSTNALVKGSCQKKSSPSTSGKQEDILKISPREKLLGDQPELLQQFGLDLLPVLVQIYGSSVNGTIRHKCLSVIGKLMYFSSSEMIQSLIGDTNISSFLAGVLAWKDPQVLVPALQVAEILMEKLPETFSKVFVREGVVHAVDQLVLVGKPSHASPTDKDNDCVPGSARSRRYRRRSSNANSDGNQSEEPKNPASLTIGANHNSLDTPTASFMLRETVSSCAKAFKDKYFPSDGGDVDVGVTDDLLHLKNLCTKLTAGIDDHKVKGKGKSKASGPFLGDFSASKEEYLIGVISEILGEISKGDGVSTFEFIGSGVVAALLNYFSCGYFSKEKISELNLPKLRQEGLRRFKAFLEVALPFDGNEGKVPPMTVLIQKLQNALSSLERFPVVLSHPSRSLSGSARLSSGLSALAHPLKLRLCRASGEKTLRDYSSNIVLIDPLASLAAVEEFLWPRVQRSESALKPAAPIGNTEPGTLPSGAGVSSPSSSTPASTTRRHSSRSRSAINIGDTSKKDPVHEKGTSSSKGKGKGVMKPAQADKGPQTRSNAQKRAVLDKDTQMKPASGDSSSEDEELEISPVDIDDALVIEEDDISDDEDDDNEDVLDDSLPMCTPDKVHDVKLADSVDDDGLATSGRQMNPASGGTSGAAAARASDSIDTGIGNSYGSRGALSFAAAAMAGLGAASGRGIRGSRDLHGRTLNRSSDEPSKLIFTAAGKQLSRHLTIYQAVQRQLMLDEDDDDRFGGSDLVSSDGSRFNDIYTIMYQRPDSQVNRLSVGGASSTTPSKSTKSATTNSSVESQSHRASLLDSILQGELPCDLEKSNSTYNVLALLRVLEGLNQLCPRLRAQTLSDRFAEGKITSLDDLSTTAAKVPLDEFVNSKLTPKLARQIQDALALCSGSLPSWCYQLTRACPFLFPFQTRRQYFYSTAFGLSRALNRLQQQQGADGSGSTNEREMRIGRLQRQKVRVSRNRILDSAAKVMEMYSSQKAVLEVEYFGEVGTGLGPTLEFYTLLSHDLQKASLGMWRSSSGDKVSMQIGRDEIEDGKPSAANRDIVLAPLGLFPRPWPSTADISEGGQFHKVIEYFRLLGRVMAKALQDGRLLDVPLSTAFYKLILGQELDLHDIVLFDAELGKTLQELRVVVARKHYLEGVGGDNSSTISDLCLRGCRIEDLSLEFTLPGYPEYILRSGDEIVDITNLEEYISLVVDATVKRGVTRQIEAFRSGFNQVFDITSLQIFTPSELDYLLCGRRELWEVETLAEHIKFDHGYNAKSPAIINLLEIMGELTADQQRAFCQFVTGAPRLPPGGLAVLNPKLTIVRKHSSTSSAAANGAGASETADDDLPSVMTCANYLKLPPYSTKEIMYKKLLYAINEGQGSFDLS
Consider B1, for which the “ubiquitylation of LEC2 (HA immunoprecipitation and immunoblot after co-expression in Nicotiana benthamiana)” value is “when co-expressed with 3xFLAG-UPL3, 3XHA-LEC2 ubiquitylation appears enhanced”.

The values are drawn from patent publication US20200131524.
